No end group written: not given here.
Experiments:
[1] = target: T1, Hair Keratin KRTHB1 Basic (UniProt Q14533 304-505, limits assumed); assay: SPRi (PlexArray HT), rank among the three peptides tested on keratin
T1 construct: The keratin was printed onto a bare gold SPRi chip; also called natural hair keratin
T1 sequence (looked up): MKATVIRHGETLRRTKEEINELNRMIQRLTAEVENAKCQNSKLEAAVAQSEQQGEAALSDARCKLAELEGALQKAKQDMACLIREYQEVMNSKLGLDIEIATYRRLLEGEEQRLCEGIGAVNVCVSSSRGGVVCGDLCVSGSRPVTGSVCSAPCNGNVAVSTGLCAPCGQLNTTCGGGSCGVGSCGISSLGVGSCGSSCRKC
Protocol: (§1) Various concentrations of Keratin dissolved in water were manually printed onto the bare gold coated (thickness 47 nm) PlexArray Nanocapture Sensor Chip (Plexera Bioscience, Seattle, Wash., US) at 40% humidity. Each concentration was printed in replicate, and each spot contained 0.2 uL of […] solution. The chip was incubated in 80% humidity at 4° C. for overnight, and rinsed with 10×PBST for 10 min, 1×PBST for 10 min, and deionized water twice for 10 min. The chip was then blocked with 5% (w/v) non-fat milk in water overnight, and washed with 10×PBST for 10 min, 1×PBST for 10 min, and deionized water twice for 10 min before being dried under a stream of nitrogen prior to use. SPRi measurements were performed with PlexAray HT (Plexera Bioscience, Seattle, Wash., US). Collimated light (660 nm) passes through the coupling prism, reflects off the SPR-active gold surface, and is received the CCD camera. Buffers and samples were injected by a non-pulsatile piston pump into the 30 uL flowcell that was mounted on the coupling prim. Each measurement cycle contained four steps: washing with PBST running buffer at a constant rate of 2 uL/s to obtain a stable baseline, sample injection at 5 uL/s for binding, surface washing with PBST at 2 uL/s for 300 s, and regeneration with 0.5% (v/v) H3PO4 at 2 uL/s for 300 s. All the measurements were performed at 4° C. The signal changes after binding and washing (in AU) are recorded as the assay value. Selected protein-grafted regions in the SPR images were analyzed, and the average reflectivity variations of the chosen areas were plotted as a function of time. Real-time binding signals were recorded and analyzed by Data Analysis Module (DAM, Plexera Bioscience, Seattle, Wash., US). Kinetic analysis was performed using BIAevaluation 4.1 software (Biacore, Inc.).

[2] = target: T1, Hair Keratin KRTHB1 Basic; assay: SPRi (PlexArray HT), keratin printed on gold chip, peptide injected, 4 C
Protocol: as §1

[3] = target: T1, Hair Keratin KRTHB1 Basic; assay: SPRi (PlexArray HT), keratin printed on the gold chip, peptide injected; kinetic fit with BIAevaluation 4.1; five curves labelled 5.68 to 91.2 nM
Protocol: as §1

B1: Aquis Pep 2 (peptide)
peptide: CTPPSCCQLHHA
notes: also called Aquis peptide 2; Peptide Aquis 2
For B1, the “Affinity Ranking” value [1] was 3, the Kd [2] was 2500 nM and the koff [3] was 0.0206 s⁻¹. It also gave a kon [3] of 8240 M⁻¹ s⁻¹.

B2: KP (peptide)
peptide: GGVCGPSPPCITT
modifications: not fully specified; cysteine pairing not given here
notes: Control peptide developed by Khairpep; also called KP peptide; third peptide
For B2, the “Affinity Ranking” value [1] was 2, the Kd [2] was 814 nM and the koff [3] was 0.00692 s⁻¹. For the same binder, the kon [3] was 8500 M⁻¹ s⁻¹.

B3: Aquis Pep1 (peptide)
peptide: FCGFPSCSTSG
notes: also called Aquis peptide 1; Peptide Aquis 1
With B3 the “Affinity Ranking” value [1] was 1, the Kd [2] was 365 nM and the koff [3] was 0.000478 s⁻¹. It also gave a kon [3] of 1310 M⁻¹ s⁻¹.

Source: patent publication US11712410 (K18, dated 2023)
